From patent publication US20250326862A1, “Antibody or Fragment Thereof Binding Specifically to Mertk, and Anti-Tumor Agent” (Chiome Bioscience Inc., priority 2021, published 2025)
“Also recorded” adds a separate entry of the source.

Tests used:
human MerTK [1] = target: T1, human MerTK (Homo sapiens, UniProt Q12866); assay: Test 9: antigen binding activity of humanized antibodies by ELISA; conditions: compared with the original human chimeric antibody (m20A77_hIgG1LALA or 24A1_hIgG1LALA, respectively); FIG. 21
T1 sequence (Q12866 21-999): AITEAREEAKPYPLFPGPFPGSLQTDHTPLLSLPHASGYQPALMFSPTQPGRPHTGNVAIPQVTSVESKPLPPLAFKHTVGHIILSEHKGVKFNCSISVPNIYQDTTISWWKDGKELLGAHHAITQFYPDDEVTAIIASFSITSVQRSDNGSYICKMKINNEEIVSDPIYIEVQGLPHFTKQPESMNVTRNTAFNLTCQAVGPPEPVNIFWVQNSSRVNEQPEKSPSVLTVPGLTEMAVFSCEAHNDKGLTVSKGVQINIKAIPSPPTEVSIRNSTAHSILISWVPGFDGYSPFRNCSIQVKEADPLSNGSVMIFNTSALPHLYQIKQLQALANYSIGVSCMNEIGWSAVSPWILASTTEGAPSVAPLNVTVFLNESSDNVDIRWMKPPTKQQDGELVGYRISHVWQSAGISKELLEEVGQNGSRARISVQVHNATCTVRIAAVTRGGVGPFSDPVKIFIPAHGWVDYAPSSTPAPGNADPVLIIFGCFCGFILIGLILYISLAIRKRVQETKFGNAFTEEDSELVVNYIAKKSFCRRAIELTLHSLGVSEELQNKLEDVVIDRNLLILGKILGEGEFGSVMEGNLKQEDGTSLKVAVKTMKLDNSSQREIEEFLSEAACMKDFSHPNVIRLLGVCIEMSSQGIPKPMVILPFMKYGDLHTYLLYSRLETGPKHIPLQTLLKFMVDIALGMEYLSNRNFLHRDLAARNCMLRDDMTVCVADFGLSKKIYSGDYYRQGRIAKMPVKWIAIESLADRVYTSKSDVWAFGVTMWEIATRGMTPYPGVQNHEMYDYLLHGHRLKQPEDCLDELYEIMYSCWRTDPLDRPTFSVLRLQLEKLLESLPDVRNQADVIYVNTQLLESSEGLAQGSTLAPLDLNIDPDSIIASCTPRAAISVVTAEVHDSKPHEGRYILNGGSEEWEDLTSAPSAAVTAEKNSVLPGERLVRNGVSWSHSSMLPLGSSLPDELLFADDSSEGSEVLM
Procedure: (§1) The ELISA was performed according to the procedures indicated below. First, the respective antigens were added to an ELISA plate (Nunc) at a concentration of 5 μg/ml and immobilized overnight at room temperature. After removing the immobilization solution, 1% BSA/PBS was added for blocking reaction and left to stand at room temperature for 1 hour. After the blocking, the plate was washed with 0.05% Tween 20/PBS and an antibody solution was added for primary reaction at room temperature for 1 hour. After washing, an HRP-labelled antibody (GE Healthcare) was added for secondary reaction for 1 hour. After washing, a chromogenic substrate solution of TMB (Dako) was added for chromogenic reaction for 10 minutes, 1 N sulfuric acid was added to terminate the reaction and the absorbance was measured at 450 nm.
The prepared antibodies were checked for antigen binding activity by ELISA.

[2] = Test 8: toxic dose by in vivo ocular toxicity test, TB staining; parameters: species or system Balb/c mice; conditions: 3 or 10 mg/kg intravenous twice a week, eyes removed day 30
Procedure: The ocular toxicity test was carried out using Balb/c mice. The mice intravenously received a solvent or “m20A77_mIgG1” at a dose of 3 or 10 mg/kg at a frequency of twice a week. At day 30 after the first administration, eyes were removed, fixed with a Karnovsky's fixative and then subjected to embedding in a resin, preparation of sections and TB staining carried out by Applied Medical Research Laboratory.

[3] = target: T2, binding of MerTK with Gas6 (Homo sapiens, UniProt Q12866); assay: Test 6: ligand binding inhibition ELISA, MerTK with Gas6; conditions: human MerTK 5 μg/ml immobilized; biotinylated Gas6 10 nM; FIGS. 13 and 15
T2 construct: purchased R&D Systems
T2 sequence (Q12866 26-499 limits assumed): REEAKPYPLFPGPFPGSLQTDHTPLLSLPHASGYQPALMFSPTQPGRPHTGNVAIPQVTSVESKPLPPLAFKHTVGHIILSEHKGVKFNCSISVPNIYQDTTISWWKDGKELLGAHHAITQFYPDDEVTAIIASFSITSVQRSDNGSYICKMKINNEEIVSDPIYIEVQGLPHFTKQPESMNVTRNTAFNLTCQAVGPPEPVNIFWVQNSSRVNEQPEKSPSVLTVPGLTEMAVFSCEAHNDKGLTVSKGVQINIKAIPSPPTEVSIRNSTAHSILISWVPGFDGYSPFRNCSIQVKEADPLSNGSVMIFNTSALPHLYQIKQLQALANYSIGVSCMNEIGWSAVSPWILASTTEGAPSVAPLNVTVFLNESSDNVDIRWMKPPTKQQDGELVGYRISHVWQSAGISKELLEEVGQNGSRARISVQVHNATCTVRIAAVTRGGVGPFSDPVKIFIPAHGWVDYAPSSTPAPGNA
Procedure: (§2) “20A77” and “24A1” were evaluated for the ability to inhibit binding of MerTK with various ligands. The MerTK ligands used were human Gas6 (R&D Systems) and human TULP1 (abcam plc.) which were respectively biotinylated using “Biotin Labeling Kit-NH” (Dojindo Laboratories Co., Ltd.). […] TULP1 is a ligand correlated with ocular toxicity, and an antibody having an activity to inhibit binding of MerTK with TULP1 may have ocular toxicity. Thus, an antibody having high inhibitory activity of binding to Gas6 and low inhibitory activity of binding to TULP1 may be an efficacious anti-tumor agent having low ocular toxicity.
as §1, with “The ligand binding inhibition test” for “The ELISA”, “was carried out as” for “was performed according to the procedures”, “First, human MerTK (R&D Systems) was” for “First, the respective antigens were”, “hour. […]” for “hour. After washing, an HRP-labelled antibody (GE Healthcare) was added for secondary reaction for 1 hour.”, “for 20” for “for 10”

[4] = target: T3, binding of MerTK with TULP1 (Homo sapiens, UniProt Q12866); assay: Test 6: ligand binding inhibition ELISA, MerTK with TULP1; conditions: human MerTK 5 μg/ml immobilized; biotinylated TULP1 40 nM; FIGS. 14 and 16
T3 construct: purchased R&D Systems
T3 sequence (Q12866 26-499 limits assumed): T2 sequence (Q12866 26-499 limits assumed)
Procedure: as §2
as §1, with “The ligand binding inhibition test” for “The ELISA”, “was carried out as” for “was performed according to the procedures”, “First, human MerTK (R&D Systems) was” for “First, the respective antigens were”, “hour. […]” for “hour. After washing, an HRP-labelled antibody (GE Healthcare) was added for secondary reaction for 1 hour.”, “for 20” for “for 10”

human MerTK [5] = target: T1, human MerTK; assay: MerTK phosphorylation inhibition test in hMerTK-EL4 cells stimulated with human Gas6; type: cell-based; parameters: expressed in transfected cells; host or cells: mouse lymphoma cell line EL4 (hMerTK-EL4); conditions: hMerTK-EL4, antibody 1 hour, then 200 nM human Gas6 for 10 minutes; phospho-Mer ELISA; FIG. 1
Procedure: On the basis of the procedures indicated below, the clones were evaluated for MerTK phosphorylation inhibitory activity. Higher activity means higher binding ability to MerTK.
The cells (hMerTK-EL4) stably expressing human MerTK were cultured in a “DMEM high glucose medium” (Thermo Fisher Scientific Inc.) containing 10% FBS. After the cultivation, the cells were washed in PBS, suspended in a serum-free medium, plated in a 96-well plate at 1×10^6 cells/well and incubated at 37° C. for 3 hours. After the incubation, the respective clones were added, the hMerTK-EL4 was allowed to react for 1 hour, stimulated with 200 nM human Gas6 (R&D Systems) for 10 minutes and centrifuged and collected. The collected hMerTK-EL4 was lysed in a cell lysis solution, and the level of the phosphorylated MerTK protein in the lysate was determined using “Human Phospho-Mer DuoSet IC ELISA” (R&D Systems). The cell lysis solution used contained 1% “IGEPAL CA-630” (SIGMA) and 1×concentration of “Halt Protease and Phosphatase Inhibitor Single-Use Inhibitor Cocktail” (Thermo Fisher Scientific Inc.) added to MilliQ water.

B1: hz20A77_hIgG1LALA: humanized antibody derived from m20A77 with human IgG1 constant region having LALA sequence (antibody, V domains shown)
VH: QVQLVQSGAEVKKPGSSVKVSCKASGNTFTSYWMHWVRQAPGQGLEWIGNINPSSGGTNYNEKFKSRVTITVDKSTSTAYMELSSLRSEDTAVYYCARLNYYGFDGFAFWGQGTLVTVSS
VL: DIQMTQSPSSLSASVGDRVTITCKASQDINSYLSWFQQKPGKAPKTLIYRANRLVSGVPSRFSGSGSGTDYTLTISSLQPEDFATYYCLQYDEFPFTFGGGTKVEIK
- antigen binding activity (reactivity) in ELISA (human MerTK [1]): reactivity similar to or higher than original human chimeric antibodies

B2: m20A77_mIgG1: mouse IgG1 antibody of m20A77 (antibody, V domains shown)
VH: QVQLQQPGTELVKPGASVKLSCRASGNTFTSYWMHWVKQRPGQGLEWIGNINPSSGGTNYNEKFKSKATLTVDKSSSTAYMQLSSLTSEDSAVYYCARLNYYGFDGFAFWGQGTLVTVSA
VL: DIKMTQSPSSMYASLGERVTITCKASQDINSYLSWFQQKPGKSPKTLIYRANRLVSGVPSRFSGSGSGQDYSLTISSLEYEDMGIYYCLQYDEFPFTFGSGTKLEIK
- TB-positive granules (retinal pigment epithelium) ([2]; FIG. 19): no increase in TB-positive granules was observed
- abnormal shrinkage of the outer nuclear layer ([2]; FIG. 20): no abnormal shrinkage of the outer nuclear layer was observed

B3: 24A1: anti-MerTK mouse monoclonal antibody clone; VH SEQ ID NO: 9, VL SEQ ID NO: 13 (antibody, V domains shown)
VH: EVQLVESGGGLVQPKGSLKLSCAASGFTFNVYDMHWVRQAPGEGLEWVARIRSKSSNYATNYADSVKDRFTISRDDSQSMLYLQMNNLQTEDTAIYYCVRDGSHYYYALDYWGQGTSVTVSS
VL: DIQMTQTTSSLSASLGDRVTISCRASQDINNYLNWYQQKLDGTVKLLIYYSSRLHSGVPSRFSGSGSGTDYSLTISNLEQEDIATYFCQQGKMFPWTFGGGTKLEIK
- inhibition of binding of Gas6 with MerTK [3]: inhibited binding of Gas6 with MerTK; also recorded: strongly inhibited binding of Gas6 with MerTK
- inhibition of binding of TULP1 with MerTK [4]: did not inhibit binding of TULP1 with MerTK
- MerTK phosphorylation inhibitory activity (human MerTK [5]): inhibited binding of Gas6 with MerTK and MerTK phosphorylation in a concentration dependent manner

B4: hz24A1_hIgG1LALA: humanized antibody derived from 24A1 with human IgG1 constant region having LALA sequence (antibody, V domains shown)
VH: EVQLVESGGGLVQPGGSLRLSCAASGFTFNVYDMHWVRQAPGKGLEWVARIRSKSSNYATNYADSVKDRFTISRDDAKNSLYLQMNSLRAEDTAVYYCVRDGSHYYYALDYWGQGTTVTVSS
VL: DIQMTQSPSSLSASVGDRVTITCRASQDINNYLNWYQQKPGKAPKLLIYYSSRLHSGVPSRFSGSGSGTDYTLTISSLQPEDFATYYCQQGKMFPWTFGGGTKVEIK
- antigen binding activity (reactivity) in ELISA (human MerTK [1]): reactivity similar to or higher than original human chimeric antibodies
